132 substances from the supplement of paper PMC12042874 can be followed below.

± gives the uncertainty stated by the source.

A short description of the data set: amyloid nucleation score (Sup35N fusion, yeast selection) (log enrichment); library NNK3; higher = more nucleation; inactive = no reads after selection. The method in brief:
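Libraries of peptides of 20 random codons fused to Sup35N were expressed in psi-negative yeast and induced 24 hours with 100 μM copper sulfate. Selection was 7 days at 30°C on medium lacking adenine and uracil, and plasmid inserts were Illumina-sequenced before and after selection. Nucleation score is the DiMSum log enrichment of output over input reads, centred on the mode score of non-aggregating sequences, and sequences with under 100 input reads were left out.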
For the substance PQMQAISSHVCLWG, the amyloid nucleation score entry is “inactive”.

Consider FSKVTFHSCGIQCERQVKNN, for which the amyloid nucleation score entry is “inactive”.

With WANMTFTELSYIK, the amyloid nucleation score entry was “inactive”.

In turn, TFRLAEQQSEFSDLK gave an amyloid nucleation score of -0.335 ± 0.71.

As to YMRLGRWWSFKAVDGRRLKW, the amyloid nucleation score was -0.373 ± 1.3.

PSVTLQHSGIATWSILDRTL gave an amyloid nucleation score of 0.316 ± 0.26.

As for DYLLWESKGLVWKCMMTCCG, the amyloid nucleation score entry was “inactive”.

Consider NNVVHEVNFLELRLRVILGY, for which the amyloid nucleation score entry was “inactive”.

For the substance RSKSF, the amyloid nucleation score entry is “inactive”.

In turn, YVFLRVEILEKLQQV came in with an amyloid nucleation score of -0.522 ± 0.84.

Turning to TYISF, the amyloid nucleation score result was “inactive”.

LFCAV: the amyloid nucleation score result is “inactive”.

Turning to TAFYSRYFWVNLICRRPSFK, the amyloid nucleation score entry is “inactive”.

Take WYMECTVACSSIICSWKWGL: the amyloid nucleation score result was “inactive”.

VVRSRTFTSTSYTF: the amyloid nucleation score came to 0.777 ± 0.23.

Take SPCIVLVQKLCGLGCRFVSV: the amyloid nucleation score was found to be 1.68 ± 0.11.

For GVVVIPS, the amyloid nucleation score amounted to 0.933 ± 0.16.

Regarding VYSGSFGDSKLLMFWCSITV, the amyloid nucleation score result is “inactive”.

TSGHLVLGGYLSNQVKSVFR had an amyloid nucleation score of 0.605 ± 0.24.

In the case of FLCMSLATRMLTFRLFPTNL, the amyloid nucleation score result was “inactive”.

As for IYFDVV, the amyloid nucleation score entry was “inactive”.

Take CIGGWDIKGKQ: the amyloid nucleation score result was “inactive”.

Regarding HLDQNLWPKQKQAHTLRTKW, the amyloid nucleation score result is “inactive”.

With CCCRIEYHGVHGATSHSQTV, the amyloid nucleation score result was “inactive”.

As to AGTSKMNIYSMHAV, the amyloid nucleation score entry was “inactive”.

Regarding RTYDVCQTRVCKRAKWEGDT, the amyloid nucleation score result is “inactive”.

For the substance ITISIYRIGRRFFDEYFNSF, the amyloid nucleation score result is “inactive”.

Take PMSVRRTVFCPSTSM: the amyloid nucleation score entry was “inactive”.

With RYYNYVSHIPAHRAVTLSAT, the amyloid nucleation score entry was “inactive”.

Substance MESDCQRDHNFIRIKIKIGE registered an amyloid nucleation score of 1.65 ± 0.09.

As to CTLIAKHNQA, the amyloid nucleation score entry is “inactive”.

With NALILAT, the amyloid nucleation score entry is “inactive”.

As to IAVERMIGLLPGSYF, the amyloid nucleation score entry was “inactive”.

LDMSFSGYTRVLARSISTDA returned an amyloid nucleation score of 0.474 ± 0.65.

With EAVYLSLYKECLCLVRVS, the amyloid nucleation score entry was “inactive”.

As to IVDFFGFNFCSWLSVFSDSR, the amyloid nucleation score was determined as 2.48 ± 0.056.

As for CHHLRWDNCVRREELDFTCV, the amyloid nucleation score result was “inactive”.

Take MVIGNVCFIIYGSFNEE: the amyloid nucleation score is 2.33 ± 0.089.

The substance WRSCSKDHLCFQSPVMPLSR displayed an amyloid nucleation score of 0.214 ± 0.42.

In the case of TVLSIIVFSYLLVCYHLVSV, the amyloid nucleation score result was “inactive”.

In the case of VVRIDSSLGKFNFQSAKD, the amyloid nucleation score result is “inactive”.

For the substance EPYPM, the amyloid nucleation score result was “inactive”.

Turning to VYNVTITNYRNLPAM, the amyloid nucleation score was found to be 2.24 ± 0.088.

Turning to SKGTLKHLN, the amyloid nucleation score was 0.921 ± 0.12.

For the substance GMCKGMVIGSAVDFTMFSAA, the amyloid nucleation score result was “inactive”.

As to SLSHECTSNKTEQVIERRLW, the amyloid nucleation score result is “inactive”.

On to NGSLREKSGSVCKRIL, for which the amyloid nucleation score result is “inactive”.

Take YYNAGAGKRRYNRSVRGSLK: the amyloid nucleation score entry was “inactive”.

With LIYRSLPFSCLSSGV, the amyloid nucleation score result is “inactive”.

As to CFLSGWTLTVSVLLVDYRKL, the amyloid nucleation score entry was “inactive”.

For RNKVHRNG, the amyloid nucleation score result is “inactive”.

As to GYFRWSRAFQLPWNSWSEWQ, the amyloid nucleation score result was “inactive”.

WMFSRL: the amyloid nucleation score entry is “inactive”.

On to EDGCRNVRLFTMVRSLMYK, for which the amyloid nucleation score entry was “inactive”.

Consider GDDIEILSFEVWRVFSKSWS, for which the amyloid nucleation score entry was “inactive”.

The substance YLFVELYYL returned an amyloid nucleation score of 0.187 ± 0.75.

As for WRCLYYMQAYSSN, the amyloid nucleation score entry was “inactive”.

With LNVDNCAYVFSDDNFMTDVN, the amyloid nucleation score entry is “inactive”.

With REWCLEVYHWYITRSHVYWC, the amyloid nucleation score entry is “inactive”.

Turning to HMDSWSYWVIVV, the amyloid nucleation score result is “inactive”.

As for WAYLWLSKNSYGR, the amyloid nucleation score result was “inactive”.

As for YSFRVTYEGPHAN, the amyloid nucleation score was found to be 0.873 ± 0.14.

As for CSGGGGKRGLLSTLTEPMRR, the amyloid nucleation score entry is “inactive”.

As to WFVYALMNRLEYSKAYFPML, the amyloid nucleation score entry was “inactive”.

For the substance PWCLNWVITDDCRFYCGLRV, the amyloid nucleation score result was “inactive”.

As to FFFTEFFELHIWTKSLPFTS, the amyloid nucleation score result was “inactive”.

As for MLNAIGCLSWSQFPESLLLG, the amyloid nucleation score result is “inactive”.

As to VIGRTASDGVRCCRVGMMRR, the amyloid nucleation score result is “inactive”.

For the substance SKCGLLNSSGTYWNIG, the amyloid nucleation score was determined as 0.934 ± 0.15.

Substance RAHIPWKRCFV registered an amyloid nucleation score of -1.06 ± 1.9.

Regarding ALKVYADMIDYLWLRTFMSW, the amyloid nucleation score entry was “inactive”.

Turning to KTLVIYYTFKIGNILHIHLF, the amyloid nucleation score entry was “inactive”.

As for MHANLLGVQSVLLDRVEVMW, the amyloid nucleation score entry was “inactive”.

With MDDFLYAVPMWELWKVLRDE, the amyloid nucleation score entry was “inactive”.

Take LDSAYRTVDGSICTTSYREH: the amyloid nucleation score result is “inactive”.

Take ILQVFKIMFKRRGLSFHLGI: the amyloid nucleation score result is “inactive”.

LGYWKFSIRHFEGGRLQIHF displayed an amyloid nucleation score of 2.7 ± 0.056.

For SVERVLLRTVASVGGDVDVN, the amyloid nucleation score entry is “inactive”.

Take SRSVMIPVNS: the amyloid nucleation score was -0.038 ± 0.75.

For GKIFMSVTFF, the amyloid nucleation score amounted to 2.43 ± 0.054.

For VGSGCNISTKTACFYMKLIA, the amyloid nucleation score result was “inactive”.

Regarding MPRSCSDYACAV, the amyloid nucleation score entry was “inactive”.

As to YPLSPRLLRTTTMHSTQGVG, the amyloid nucleation score result is “inactive”.

On to MTCSQSECARVIVSRCHVWP, for which the amyloid nucleation score entry was “inactive”.

Regarding RDGSM, the amyloid nucleation score entry is “inactive”.

In turn, FVWLWVVISLNCSNNEFVFN showed an amyloid nucleation score of 2.51 ± 0.061.

As for ILGAILLSMFDSLYLGGEWR, the amyloid nucleation score result was “inactive”.

In the case of PVPLAMYFYVALIYFDWW, the amyloid nucleation score result was “inactive”.

For MVMQIYIDDRPSMKVLYSEM, the amyloid nucleation score was 0.485 ± 0.21.

Turning to GFLSGVKVLNGGEDNDTLPE, the amyloid nucleation score entry was “inactive”.

With LTFVHNWFDPLCLHRNSAMN, the amyloid nucleation score entry is “inactive”.

On to AGHSEA, for which the amyloid nucleation score entry is “inactive”.

Take KCRDLIRNVVPNSAIELDPS: the amyloid nucleation score entry is “inactive”.

As for HHKMVISVSSRNQSEKRSDW, the amyloid nucleation score result is “inactive”.

Take VIPARADATGPKEHGWLQLQ: the amyloid nucleation score entry was “inactive”.

Regarding RKACYLLVI, the amyloid nucleation score entry is “inactive”.

Consider SENICLYT, for which the amyloid nucleation score result is “inactive”.

As for AYKAAYAVWCVIINGGLF, the amyloid nucleation score entry is “inactive”.

For TFFLYVKIRVALNIRVPGVR, the amyloid nucleation score result is “inactive”.

Turning to NNYSPLFRTTAGYSSHFTRQ, the amyloid nucleation score result was “inactive”.

As to TSKVGLACKTIYVERSFWYF, the amyloid nucleation score result was “inactive”.

In the case of YRMTGKLYAVIECSDTVLSG, the amyloid nucleation score entry was “inactive”.

For CCGINGIKLAAANRWSPVEH, the amyloid nucleation score result was “inactive”.

Regarding GTLYAKSVRNKGSS, the amyloid nucleation score result was “inactive”.

As for EAMPHLARGFVVFMCFFRSG, the amyloid nucleation score entry was “inactive”.

YRPRGERLRFMYCY: the amyloid nucleation score entry was “inactive”.

Consider CMMWNRGFT, for which the amyloid nucleation score entry was “inactive”.

Consider VDQPQ, for which the amyloid nucleation score entry is “inactive”.

Consider IRFSCSSSG, for which the amyloid nucleation score result was “inactive”.

Regarding RLITNNVTS, the amyloid nucleation score entry was “inactive”.

Take LQSYRDLQTRFFLFSAHTSL: the amyloid nucleation score entry is “inactive”.

In the case of FMRDD, the amyloid nucleation score result was “inactive”.

Regarding RAFFLVIAIFNKVEVVSGST, the amyloid nucleation score amounted to 1.15 ± 0.14.

Regarding PLPDRGSFFTVSNLNEWSAV, the amyloid nucleation score result is “inactive”.

FYKLRHQVRTKISERYLPDS: the amyloid nucleation score entry is “inactive”.

Turning to HIVLLKCIQAAETVAGFKW, the amyloid nucleation score result is “inactive”.

Regarding FLIDNCYWYPHCAPIVAPWL, the amyloid nucleation score result is “inactive”.

As for FSVANGHRVM, the amyloid nucleation score result is “inactive”.

Consider TPYQYFFRNCWKMSYRRAKI, for which the amyloid nucleation score result was “inactive”.

For GTMIRQLERELSHMREVTYI, the amyloid nucleation score entry was “inactive”.

For FHTFSLTSINMVLLSFVVRF, the amyloid nucleation score result was “inactive”.

For the substance PLCFLFNQFSYGA, the amyloid nucleation score result is “inactive”.

Turning to IRVRLINSGAL, the amyloid nucleation score entry is “inactive”.

In turn, LMSTKVVFEL gave an amyloid nucleation score of 0.076 ± 0.19.

NAGHICFVVVTKWREFASVY: the amyloid nucleation score result is “inactive”.

For FIYDEQSSDSVV, the amyloid nucleation score entry was “inactive”.

For the substance PFGSSTRFIHVFYGAWGHSK, the amyloid nucleation score entry was “inactive”.

Regarding DATRSCLWMYAIVYNACIGH, the amyloid nucleation score result was “inactive”.

As for VLCSVFIFFLRGFDS, the amyloid nucleation score was determined as 2.3 ± 0.066.

IGPVVGGYRYMCPASDHK: the amyloid nucleation score result was “inactive”.

Turning to LENLLGMWVSCAWLSGSHFV, the amyloid nucleation score result was “inactive”.

Take FSSLGANYNHEILKGCGVGS: the amyloid nucleation score result is “inactive”.
